Results published in patent US20180334496A1 (KODIAK SCIENCES, published 2018).
Like-named read-outs stand apart in the source and are kept apart here.

Assays:
[1] = target: T1, recombinant human CFD mutant 1 (R157A, R207A), His-tagged (human, UniProt P00746 26-253); assay: ELISA
T1 construct: positions are linear positions in the mature protein; also called rhCFD-mut1-His; Mut1

[2] = target: T2, human complement factor D purified from serum (human, UniProt P00746 26-253); assay: SPR MX96
T2 construct: serum-purified (CompTech); also called hCFD-Comptech; CFD
T2 sequence (P00746 26-253): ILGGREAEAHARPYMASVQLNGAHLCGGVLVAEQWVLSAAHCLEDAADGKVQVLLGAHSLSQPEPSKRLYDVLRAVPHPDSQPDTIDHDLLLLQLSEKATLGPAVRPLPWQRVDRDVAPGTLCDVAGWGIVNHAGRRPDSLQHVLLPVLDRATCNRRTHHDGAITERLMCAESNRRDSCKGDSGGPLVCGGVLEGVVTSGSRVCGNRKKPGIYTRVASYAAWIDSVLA

[3] = target: T3, recombinant cynomolgus CFD, His-tagged (cynomolgus); assay: SPR MX96
T3 construct: also called rcyCFD-His; recombinant Cyno-CFD

[4] = target: T4, recombinant human CFD, His-tagged (human, UniProt P00746 26-253); assay: SPR MX96
T4 construct: also called rhCFD-His
T4 sequence (P00746 26-253 limits assumed): as the sequence (P00746 26-253) above

[5] = target: T1, recombinant human CFD mutant 1 (R157A, …); assay: SPR MX96
[6] = target: T2, human complement factor D purified from …
[7] = target: T2, human complement factor D purified from …; assay: cell-based or functional assay
[8] = target: T1, recombinant human CFD mutant 1 (R157A, …); assay: ELISA; remark: listed apart in the source
[9] = target: T2, human complement factor D purified from …; remark: listed apart in the source
[10] = target: T2, human complement factor D purified from …; assay: cell-based or functional assay; remark: listed apart in the source
[11] = target: T1, recombinant human CFD mutant 1 (R157A, …); assay: ELISA; remark: listed apart in the source
[12] = target: T2, human complement factor D purified from …; remark: listed apart in the source
[13] = target: T2, human complement factor D purified from …; assay: cell-based or functional assay; remark: listed apart in the source
[14] = target: T1, recombinant human CFD mutant 1 (R157A, …); assay: ELISA, Mut1 Binding, Bin 2
Throughout, for CFD Enzymatic activity (% of Neg Ctrl): test concentration or dose not given here.

T1 sequence (P00746 26-253 R182A/R232A limits assumed): as the sequence (P00746 26-253) above, with R157A, R207A counted along it

Binder	Mut1 Binding (% wt) [1]	Kd [2]	Kd [3]	Kd [4]	Kd [5]	Kd [6]	CFD Enzymatic activity (% of Neg Ctrl) [7]	Mut1 Binding (% wt) [8]	Kd [9]	CFD Enzymatic activity (% of Neg Ctrl) [10]	Mut1 Binding (% wt) [11]	Kd [12]	CFD Enzymatic activity (% of Neg Ctrl) [13]	binding result [14]
KCD131 (antibody, V domains shown, chimeric) VH: QVQLQQSGPELVKPGASVKISCKASAYTFTDYYINWVKQRPGQGPEWIGWIFPGSNSTYSNEKFEVKATLTVDESSSTAYMLLSSLTSEDSAVYFCARLGYFGSSYHALDYWGQGTSVTVSS VL: DIQMTQSPASLSVSVGETVTITCRASENIYSHLAWFQQKQGKSPRLLVYSATNLPDGVPSRFSGSGSGTQYSLKINILQSEDFGSYYCQHFWGTPWTFGGGTKLEIK	80.7 % wt	0.14 nM	0.99 nM	0.047 nM	0.045 nM	0.0342 nM	65.9 % of Neg Ctrl							
KCD224 (antibody, V domains shown, chimeric) VH: QVQLKESGPGLVAPSQSLSITCTVSGFSLTSYGVDWIRQSPGKGLEWLGVIWGVGSTNYNSALKSRLSISKDNSKSQVFLKMNSLQTDDTAMYYCARSYDGSYWYFDVWGTGTTVTVSS VL: DIQMTQTTSSLSASLGDRVTISCRASQVISNYLNWYQQKPDGTVKLLIYYTSRLHSGVPSRFSGSGSGTDYSLTISNLEPEDIATYYCQQYSKLPYTFGSGTKLEIK		1.2 nM	100 nM	0.54 nM	1.1 nM			121 % wt	0.0156 nM	36.3 % of Neg Ctrl				
KCD102 (antibody, V domains shown, chimeric) VH: QVQLQQPGAELVRPGTSVKLSCKASGYTFTSYWMHWVKQRPGQGLEWIGVIDPSDSYTNYNQKFKGKATLTVDTSSSTAYMQLSSLTSEDSAVYYCARNGYDGSMDYWGQGTSVTVSS VL: EIQMTQTTSSLSASLGDRVTISCRASQDISNYLNWYQQKPDGTVKLLIYYPSRLHSGVPSRFSGSGSGTDYSLTISNLEQEDFATYFCQQGNTLPYTFGGGTKLEIK	64.3 % wt	3.6 nM	230 nM	2.5 nM	2.5 nM	6.98 nM	92.3 % of Neg Ctrl							
KCD103 (antibody, V domains shown, chimeric) VH: QVQLQQPGAELVRPGTSVKLSCKASGYTFTSYWMHWVKQRPGQGLEWIGVIDPSDSYTKYNQKFKDKATLTVETSSSTAYMQLSSLTSEDSAVYYCAGNGYDGSMDYWGQGTSVTVSS VL: DIQMTQTTSSLSASLGDRVTISCRASQDISNSLNWYQQKPDGTVKLLIYYTSRLHSRVPSRFSGSGSGTDYSLTISNLDQEDIATYFCQQANTLPYTFGGGTKLEIK	65.2 % wt	4.4 nM	63 nM	3.1 nM	2.5 nM	1.48 nM	126 % of Neg Ctrl							
KCD122 (antibody, V domains shown, chimeric) VH: EVQLQQSGPELVKPGASVKISCKASGYTFTDYYKNWMRQRHGESLEWIGDINPNNGDANYNQKFKGKATLTVDKSSSTAYMELRSLTSEDSAVYFCAREGPSFAYWGHGTLVTVSA VL: DVLMTQTPLSLPVSLGDQASISCRSSQTIVHSNGDTYLEWYLQKPGQSPNLLIYKVSNRFSGVPDRFSGSGSGTDFTLKISRVEAEDLGVYYCFQGSHVPPTFGGGTKLEIK		1.4 nM	1.9 nM	0.95 nM							2.25 % wt	0.162 nM	17.3 % of Neg Ctrl	no binding
KCD003 (antibody, V domains shown, chimeric) VH: EVQLQQSRPELVKPGASVKIFCKASGYTFTDYYMNWMRQRHGETLEWIGDINPNNGDPSYNQKFKDKATLTVDKSSSTASMELRSLTSDDSAVYYCAREGPSFAYWGQGTLVTVSA VL: DVLMTQTPLSLPVSLGEQASISCRSSQTIVHSNGDTYLEWYLQKPGQSPNLLIYKVSNRFSGVPDRFSGSGSGTDFTLKISRVEAEDLGVYYCFQGSHVPPTFGGGTKLEIK		1.1 nM	1.8 nM	0.81 nM							1.53 % wt	0.318 nM	19.6 % of Neg Ctrl	no binding
KCD118 (antibody, V domains shown, chimeric) VH: EVQLQQSGPELVKPGASVKISCKAFGYTFTDYYKNWMRQRHGESLEWIGDINPNSGDANYNQKFKGKATLTVDKSSSTAYMELRSLTSEDSAVYYCAREGPSFAYWGHGTLVTVSA VL: DVLMTQTPLSLPVSLGDQASISCRSSQTIVHSNGDTYLEWYLQKPGQSPNLLIYKVSNRFSGVPDRFSGSGSGTDFTLKISRVEAEDLGIYYCFQGSHVPPTFGGGTKLEIK		0.76 nM	1.3 nM	0.54 nM							0.762 % wt	0.0883 nM	14 % of Neg Ctrl	no binding
KCD220 (antibody, V domains shown, chimeric) VH: QVQLQQSGAELMEPGASVKLSCKATGYTFTGYWIEWVKQRPGHGLEWIGETLPGSDSNNYNEKFKGKATFTADTSSNTAYMQLSSLTTEDSAIYYCARDYSNYWYFDVWGTGTTVTVSS VL: DIQMTQTTSSLSASLGDRVTISCRASQDISNYLNWYQQKPDGTVKLLIYYTSNLHSGVPSRFSGSGSGTDYSLTISNLEQEDIATYFCQQDSKHRTFGGGTKLEIK	74.1 % wt	0.054 nM	0.28 nM	0.074 nM	0.029 nM	0.0639 nM	88.1 % of Neg Ctrl							
KCD136 (antibody, V domains shown, chimeric) VH: EVQLQQSVAELVRPGASVKLSCSASGFNIKNTYMHWVNQRPEQGLEWIGRIDPANGITKYAPNFQGKATITADTSSNTAYLQLSNLTSEDTAIYYCTRAMDYWGQGTSVTVSS VL: QIVLTQSPAIMSASPGEKVTMTCSASSSVSYMYWYQQKPGSSPRLLIYDISNLASGVPVRFSGSGSGTSYSLTISRMEAEDAATYYCQQWDTYPWTFGGGTKLEIK		4.5 nM	27 nM	3.4 nM	1.4 nM			78.3 % wt	0.587 nM	11.8 % of Neg Ctrl				

More lines, in order of falling Kd [2], values ahead:

Mut1 Binding (% wt) [1]	Kd [2]	Kd [3]	Kd [4]	Kd [5]	Kd [6]	CFD Enzymatic activity (% of Neg Ctrl) [7]	Mut1 Binding (% wt) [8]	Kd [9]	CFD Enzymatic activity (% of Neg Ctrl) [10]	Mut1 Binding (% wt) [11]	Kd [12]	CFD Enzymatic activity (% of Neg Ctrl) [13]	binding result [14]	Binder
65.8 % wt	3.8 nM	240 nM	2.7 nM	2.8 nM	1.45 nM	93.2 % of Neg Ctrl								KCD101 (antibody, V domains shown, chimeric) VH: QVQLQQPGAELVRPGTSVKLSCKASGYTFTSYWMHWVKQRPGQGLEWIGVIDPSDSYTNYNQKFKGKATLTVDTSSSTAYMQLSSLTSEDSAVYYCGRNGYDGSMDYWGQGTSVTVSS VL: DIQMTQTTSSLSASLGDRVTISCRASQDISNYLNWYQQKPDGTVKLLIYYPSRLHSGVPSRFSGSGSGTDYSLTISNLEQEDFATYFCQQGNTLPYTFGGGTKLEIK
	3.1 nM	2.9 nM	2.5 nM							3.77 % wt	1.46 nM	49.4 % of Neg Ctrl	no binding	KCD010 (antibody, V domains shown, chimeric) VH: EVLLQQSGPELVKPGASVKIPCKASGYTFTDYDMDWVKQSHGKSLEWIGHINPNNGGTIYNQKFKGKATLTVDKSSSTAYMELRSLTSEDTAVYYCGTGDFAYWGHGTLVTVSA VL: QIVLTQSPAIMSVSPGEKVTLTCSASSSVSSSYLYWYQKKPGSSPKLWIYSTSNLASGVPARFSGSGSGTSYSLTISSMEAEDAASYFCHQWSSYPPTFGAGTKLELK
	1.8 nM	2.9 nM	1.3 nM							0.602 % wt	0.293 nM	16.7 % of Neg Ctrl	no binding	KCD121 (antibody, V domains shown, chimeric) VH: EVQLQQSGPELVKPGASVKISCKASGYTFTDYYKNWMRQRHGESLEWIGDINPNNGDTSYNQKFRGKATLTVDKSSSTAFMELRSLTSEDSAVYYCAREGPSFAYWGQGTLVTVSA VL: DVLMTQTPLSLPVSLGDQASISCRSNQTIVHSNGDTYLEWYLQKPGQSPNLLIYKVSNRFSGVPDRFSGSGSGTDFTLRISRVEAEDLGVYYCFQGSHVPPTFGGGTKLEIK
68.3 % wt	1.6 nM	72 nM	1.2 nM	0.82 nM	1.32 nM	92.3 % of Neg Ctrl								KCD104 (antibody, V domains shown, chimeric) VH: QVQLQQPGAELVRPGTSVKLSCKASGYTFTSYWMHWVKQRPGQGLEWIGVIDPSDSYTYYNQKFKGKATLTVDTSSSTAYMQLSSLTSEDSAVYYCARNGYDGAMDYWGQGTSVTVSS VL: EIQMTQTTSSLSASLGDRVTISCRASQDISNYLNWYQQKPDGTVKLLIYYPSRLHSGVPSRFSGSGSGTDYSLTISNLEQEDFATYFCQQGNTLPYTFGGGTKLEIK
71.2 % wt	0.13 nM	0.41 nM	0.11 nM	0.08 nM	0.0307 nM	144 % of Neg Ctrl								KCD002 (antibody, V domains shown, chimeric) VH: EVKLVESEGGLVQPGSSMKLSCTASGFTFSDYYMAWVRQVPEKGLEWVGNINYDGSSTYYLDSLKSRFIISRDSAKNILYLQMSSLKSEDTATYFCARGEDFYLYAMDYWGQGTSVTVSS VL: DIQMTQSPASLSASVGETVTITCRASENIHSYLAWYQQKQGKSPQLIVYNTKTLAEGVPSRFSGSGSGTQFSLKINSLQPEDFGSYYCQHHYGIPPTFGGGTKLEIK
